In paper PMC4960319, “The anti-sigma factor RsrA responds to oxidative stress by reburying its hydrophobic core” (Nature Communications, 2016):
Where a chain is given by its changes, count along the chain named. Names may count otherwise. “And” between values parts separate entries of the source, which are not always exact repeats. Identical values can stand only once.

Legend:
Conditions in all cases: both partners purified
[1] = biological target: T1, σR Trp88Ile Trp119Ile (Streptomyces coelicolor, UniProt Q7AKG9 5-227, Trp88Ile | Trp119Ile); test: ITC; competition ITC as for the wild-type complex (Figure 3a): RsrAred.Zn2+ (100 μM) titrated into σR (10 μM, cell) in the presence of 50 μM weak competitor RsrA* Cys11Ser Cys44Ser; 35 °C, 50 mM Tris pH 7.5, 100 mM NaCl, 2 mM DTT
T1 construct: ECF sigma factor σR (SigR) of Streptomyces coelicolor; mutant of the tagless construct of residues 5-227 (all σR mutants were similarly purified); The limits are those of the wild-type construct; source: E. coli BL21(DE3), purified as wild-type σR

[2] = biological target: T2, σR (residues 5-227) (Streptomyces coelicolor, UniProt Q7AKG9 5-227); test: stopped-flow tryptophan fluorescence; 25 °C, with zinc; kon: pseudo-first-order, σR 125 nM, RsrA 1.25-2.5 μM; koff: 2.5 μM complex displaced with 25 μM σR Trp88Ile Trp119Ile; Kd = koff/kon; 50 mM Tris pH 7.5, 100 mM NaCl, 2 mM DTT
T2 construct: ECF sigma factor σR (SigR) of Streptomyces coelicolor; residues 5-227 subcloned into pET21a with a C-terminal stop codon for tagless expression; also called sigma factor σR; SigR; source: E. coli BL21(DE3), purified without tags (ammonium sulfate precipitation, Q-Sepharose, Hi-Load S75)

[3] = biological target: T2, σR (residues 5-227); test: stopped-flow tryptophan fluorescence; 35 °C, with zinc; kon: pseudo-first-order, σR 125 nM, RsrA 1.25-2.5 μM; koff: 2.5 μM complex displaced with 25 μM σR Trp88Ile Trp119Ile; Kd = koff/kon; 50 mM Tris pH 7.5, 100 mM NaCl, 2 mM DTT
[4] = biological target: T2, σR (residues 5-227); test: stopped-flow tryptophan fluorescence; 25 °C, without zinc (EDTA-treated RsrA); kon: pseudo-first-order, σR 125 nM, RsrA 1.25-2.5 μM; koff: 2.5 μM complex displaced with 25 μM σR Trp88Ile Trp119Ile; Kd = koff/kon; 50 mM Tris pH 7.5, 100 mM NaCl, 2 mM DTT
[5] = biological target: T2, σR (residues 5-227); test: stopped-flow tryptophan fluorescence; 35 °C, without zinc (EDTA-treated RsrA); kon: pseudo-first-order, σR 125 nM, RsrA 1.25-2.5 μM; koff: 2.5 μM complex displaced with 25 μM σR Trp88Ile Trp119Ile; Kd = koff/kon; 50 mM Tris pH 7.5, 100 mM NaCl, 2 mM DTT
[6] = biological target: T3, σ^R Trp88Ile Trp119Ile (Streptomyces coelicolor, UniProt Q7AKG9 5-227, Trp88Ile | Trp119Ile); test: stopped-flow tryptophan fluorescence; dissociation by competition, with zinc: 2.5 μM complex mixed with 25 μM σ^R Trp88Ile Trp119Ile (10-fold excess); 25 or 35 °C, 50 mM Tris pH 7.5, 100 mM NaCl
T3 construct: ECF sigma factor σ^R (SigR) of Streptomyces coelicolor; both tryptophans replaced; The limits 5-227 are those stated for the tagless wild-type construct; source: E. coli BL21(DE3), purified as wild-type σ^R ("All σ^R mutants were similarly purified")

[7] = biological target: T4, σ^R (sigma factor SigR) from Streptomyces coelicolor, residues 5-227, tagless (Streptomyces coelicolor, UniProt Q7AKG9 5-227); test: as above
T4 construct: ECF sigma factor σ^R (SigR) of Streptomyces coelicolor, residues 5-227 subcloned into pET21a (NdeI, BamHI) with a C-terminal stop codon; also called wild-type σ^R; source: E. coli BL21(DE3), pET21a, purified without tags (ammonium sulfate, Q-Sepharose, Hi-Load S75)

[8] = biological target: T4, σ^R (sigma factor SigR) from …; test: ITC; direct titration in the absence of zinc: RsrA^red (100 μM), σ^R (10 μM); 35 °C, 50 mM Tris pH 7.5, 100 mM NaCl, 2 mM DTT; single site model
[9] = biological target: T4, σ^R (sigma factor SigR) from …; test: ITC; competition ITC: RsrA^red.Zn^2+ (100 μM) titrated into σ^R (10 μM) with 50 μM weak-binding RsrA mutant in the cell; 35 °C, 50 mM Tris pH 7.5, 100 mM NaCl, 2 mM DTT; competitive binding model
[10] = biological target: T4, σ^R (sigma factor SigR) from …; test: stopped-flow tryptophan fluorescence; dissociation by competition, without zinc (apo-RsrA): 2.5 μM complex mixed with 25 μM σ^R Trp88Ile Trp119Ile (10-fold excess); 25 °C, 50 mM Tris pH 7.5, 100 mM NaCl
[11] = biological target: T4, σ^R (sigma factor SigR) from …; test: ITC; RsrA mutants (values in Supplementary Table 1); 35 °C, 50 mM Tris pH 7.5, 100 mM NaCl, 2 mM DTT; direct titration for weaker binding mutants (10 μM RsrA in the cell, 100 μM σ^R in the syringe); RsrA preincubated with ZnCl2 and buffer exchanged where zinc was included
[12] = biological target: T2, σR (residues 5-227); test: ITC; with zinc (+), RsrA preincubated with 1 mM ZnCl2 and buffer exchanged; direct titration for weaker binding mutants (methods: 10 μM RsrA in the cell, 100 μM σR in the syringe); 35 °C, 50 mM Tris pH 7.5, 100 mM NaCl, 2 mM DTT; single binding site model
[13] = biological target: T2, σR (residues 5-227); test: ITC; without zinc (-); direct titration; 35 °C, 50 mM Tris pH 7.5, 100 mM NaCl, 2 mM DTT; single binding site model
[14] = biological target: T2, σR (residues 5-227); test: ITC; with zinc (+); 35 °C, 50 mM Tris pH 7.5, 100 mM NaCl, 2 mM DTT; the table does not tell whether this sub-nanomolar value came from a direct or a competition titration

B1: RsrA wild type (natural protein, Streptomyces coelicolor, UniProt Q7AKG8 1-105, looked up)
chain: MSCGEPHETDCSEILDHLYEFLDKEMPDSDCVKFEHHFEECSPCLEKYGLEQAVKKLVKRCCGQDDVPGDLRAKVMGRLDLIRSGQSVPEHDVAAAPSSSAPQES
notes: Reduced protein; used with one equivalent of zinc or after EDTA treatment without zinc (told by the assay); also called RsrAred.Zn2+ (with one zinc); RsrAred (without zinc); source: E. coli BL21(DE3) pLysS, purified by a His-tag that was removed by thrombin; not shown: His tag, N-terminal, cleaved
Kd [1]: 0.173 nM | stoichiometry N [1]: 1.17 | Kd [2]: 0.13 nM | koff [2]: 0.00071 s⁻¹ | kon [2]: 5.4e+06 M⁻¹ s⁻¹ | Kd [3]: 0.27 nM | koff [3]: 0.0024 s⁻¹ | kon [3]: 8.9e+06 M⁻¹ s⁻¹ | Kd [4]: 24.9 nM | koff [4]: 0.286 s⁻¹ | kon [4]: 1.15e+07 M⁻¹ s⁻¹ | Kd [5]: 62.4 nM | koff [5]: 1.08 s⁻¹ | kon [5]: 1.73e+07 M⁻¹ s⁻¹

B2: RsrA* Cys11His Cys41His Cys44His (natural protein, Streptomyces coelicolor, UniProt Q7AKG8 1-105, looked up)
chain: B1 chain with C3A, C11H, C31A, C41H, C44H, C61A, C62A
notes: Non-oxidative control; also called triple mutant; RsrA*^red.Zn^2+ Cys11His Cys41His Cys44His; source: E. coli BL21(DE3) pLysS, purified using a His-tag that was removed by thrombin cleavage; not shown: His-tag, N-terminal, cleaved
binding result [6]: binds | koff [7]: ~2.3 s⁻¹

B3: RsrA* Cys11His (natural protein, Streptomyces coelicolor, UniProt Q7AKG8 1-105, looked up)
chain: B1 chain with C3A, C11H, C31A, C61A, C62A
notes: The complex with σ^R analysed by native MS has a theoretical mass of 40,128.08 Da, which may mean that tags were present in that sample; also called RsrA*^red.Zn^2+ Cys11His; source: E. coli BL21(DE3) pLysS, purified using a His-tag that was removed by thrombin cleavage; not shown: His-tag, N-terminal, cleaved
binding result [6]: binds | koff [7]: 0.064 s⁻¹

B4: RsrA (wild type), anti-sigma factor from Streptomyces coelicolor (natural protein, UniProt Q7AKG8 1-105, looked up)
chain: B1 chain
notes: Used reduced with one zinc ion at the ZAS motif (RsrA^red.Zn^2+) or reduced without zinc (EDTA-treated); the assay tells which; also called RsrA^red.Zn^2+; RsrA^red; source: E. coli BL21(DE3) pLysS, purified using a His-tag that was removed by thrombin cleavage; not shown: His-tag, N-terminal, cleaved
Kd [8]: 79.3 ± 4.2 nM | dH [8]: -16.26 ± 0.13 kcal/mol | stoichiometry N [8]: 0.97 ± 0.004 | Kd [9]: 0.78 nM and ~0.7 nM | dH [9]: -23.1 kcal/mol | stoichiometry N [9]: 1.01 | fold, kinetically derived Kd at 25 °C lower than at 35 °C [7]: ~2 fold | fold increase of koff without zinc against with zinc [10]: 400 fold | koff [10]: ~0.3 s⁻¹

B5: RsrA* (RsrA with Cys3, Cys31, Cys61 and Cys62 mutated to alanine) (natural protein, Streptomyces coelicolor, UniProt Q7AKG8 1-105, looked up)
chain: B1 chain with C3A, C31A, C61A, C62A
notes: the four non-essential cysteines mutated to alanine; also called RsrA*^red.Zn^2+; source: E. coli BL21(DE3) pLysS, purified using a His-tag that was removed by thrombin cleavage; not shown: His-tag, N-terminal, cleaved
binding result [6]: binds | koff [7]: 0.0027 s⁻¹

B6: RsrA* Cys41His (natural protein, Streptomyces coelicolor, UniProt Q7AKG8 1-105, looked up)
chain: B1 chain with C3A, C31A, C41H, C61A, C62A
notes: source: E. coli BL21(DE3) pLysS, purified using a His-tag that was removed by thrombin cleavage; not shown: His-tag, N-terminal, cleaved
binding result [11]: binds

B7: RsrA V75A L79A (natural protein, Streptomyces coelicolor, UniProt Q7AKG8 1-105, looked up)
chain: B1 chain with V75A, L79A
notes: also called RsrA Val75Ala Leu79Ala; source: E. coli BL21(DE3) pLysS, purified by a His-tag that was removed by thrombin; not shown: His tag, N-terminal, cleaved
Kd [12]: 82.1 nM

B8: RsrA V54A L57A (natural protein, Streptomyces coelicolor, UniProt Q7AKG8 1-105, looked up)
chain: B1 chain with V54A, L57A
notes: also called RsrA Val54Ala Leu57Ala; source: E. coli BL21(DE3) pLysS, purified by a His-tag that was removed by thrombin; not shown: His tag, N-terminal, cleaved
Kd [12]: 105 nM

B9: RsrA* C11H C41H C44H (natural protein, Streptomyces coelicolor, UniProt Q7AKG8 1-105, looked up)
chain: B1 chain with C3A, C11H, C31A, C41H, C44H, C61A, C62A
notes: also called RsrA* Cys11His Cys41His Cys44His; source: E. coli BL21(DE3) pLysS, purified by a His-tag that was removed by thrombin; not shown: His tag, N-terminal, cleaved
Kd [12]: 305 nM

B10: RsrA* C41S C44S (natural protein, Streptomyces coelicolor, UniProt Q7AKG8 1-105, looked up)
chain: B1 chain with C3A, C31A, C41S, C44S, C61A, C62A
notes: source: E. coli BL21(DE3) pLysS, purified by a His-tag that was removed by thrombin; not shown: His tag, N-terminal, cleaved
Kd [12]: 297 nM

B11: RsrA* C11S (natural protein, Streptomyces coelicolor, UniProt Q7AKG8 1-105, looked up)
chain: B1 chain with C3A, C11S, C31A, C61A, C62A
notes: as for B10
Kd [12]: 79 nM

B12: RsrA* (natural protein, Streptomyces coelicolor, UniProt Q7AKG8 1-105, looked up)
chain: B1 chain with C3A, C31A, C61A, C62A
notes: also called RsrA*red.Zn2+; source: E. coli BL21(DE3) pLysS, purified by a His-tag that was removed by thrombin; not shown: His tag, N-terminal, cleaved
Kd [13]: 183 nM | Kd [14]: 0.23 nM

B13: RsrA* Cys11Ser Cys44Ser (natural protein, Streptomyces coelicolor, UniProt Q7AKG8 1-105, looked up)
chain: B1 chain with C3A, C11S, C31A, C44S, C61A, C62A
notes: as for B6
Kd [11]: 185 nM

B14: RsrA* C11S C41S (natural protein, Streptomyces coelicolor, UniProt Q7AKG8 1-105, looked up)
chain: B1 chain with C3A, C11S, C31A, C41S, C61A, C62A
notes: as for B10
Kd [12]: 240 nM

B15: RsrA* Cys44His (natural protein, Streptomyces coelicolor, UniProt Q7AKG8 1-105, looked up)
chain: B1 chain with C3A, C31A, C44H, C61A, C62A
notes: as for B6
binding result [11]: binds

B16: RsrA* C11S C44S (natural protein, Streptomyces coelicolor, UniProt Q7AKG8 1-105, looked up)
chain: B1 chain with C3A, C11S, C31A, C44S, C61A, C62A
notes: also called RsrA* Cys11Ser Cys44Ser; source: E. coli BL21(DE3) pLysS, purified by a His-tag that was removed by thrombin; not shown: His tag, N-terminal, cleaved
binding result [1]: binds
